Test: soluble on expression in E. coli; label from the status in PepcDB or PDB records

Q: Which “soluble on expression in E. coli” value does the source give for “MQTISDNAANAIQEIFGRSKALIGMIHCPAFPGAPRYRNASMDAIYDACMRDAERLIEGGMHGLIVENHGDVPFSKPDDIGPETSAFMSVVTDRIVRTAGVPVGINVLANAPIPAFAIAKAGGAKFIRVNQWANAYVANEGFMEGRAAEAMRYRSLLRAEHIKVFADSHVKHGAHAITADRSIDELTRDLAFFDADGVIATGQRTGNSASLEEIEEIGAATHLPLLVGSGVNEGNIVEILKRTSGVIVASSLKEGGVWWNPVELARVRSFVAAARPGLEALEHHHHHH” here?
A: soluble

Q: Which “soluble on expression in E. coli” value does the source give for “MGSDKIHHHHHHMQSFKIIKPIHILTPYVRYYWILEDGADVSVSERTLPTGCIQLVFHRGKRLLLVGKKESQPQAFICGQCLNFSDVMSAGKIEMITVVFQPYAARAILQLPLKFFYGELIAVDAIADLELSILSRKVIEADDHETCIRLIEQFLIHRLYRFEGYEYNLKRISAVLHQINEQAKTNISELSETACLSSKQFNRIFLDYVGATPKEFLRIVRMQRALFKVQQNPSISFAQLAYECGFSDQSHMIKEFKLFSGYTPTEYLSLCAPYSDYFSE” here?
A: not soluble

Q: Which “soluble on expression in E. coli” value does the source give for “SQPIATQELQLGDELANKAFAATNRGDFVAAEDYWTQIIEKFPINAGAWINRGNSRVSQNKLEAALTDYNKAIELAPNLTDPYLNRGTALEGLGKWEDAIADYNYVLALDPNDAMAYNNRGNAKTGLGKWEDAISDYQKATAIAPNFAFARANYALALYETGQTDKAIREMRNIVRKYPKFADMRAALTAAYWVGGQKGEAESNWVAAYGLDTRYKDMDWVTNIRRWPPSMVAALDKFLKLN” here?
A: soluble

Q: For “MNVIEVEDVSFRYGNSREYSLRHINLEIRKGEFLGIIGPSGSGKSTFCLTLNGLIPHSIAGEFHGNVIVDGLNTREHSVSELSTKVGLVFQNPDSQLFNMTVLEEVAFALENLGIERDEMWRRIRWALKLVRLWDKREEFPPNLSGGEKQRLAIASVLVMKPKVLVLDEPTSQLDPLGREEVLGLIKLLNKEEKITIILVEHNTDFLLEHADRIVVFDKGRIVLEGKPEDVFENVEFLRTIGVKLPTRVKIGYELKKRGLVERAVLTRDEVVEVLKWAYLRGKS”, which “soluble on expression in E. coli” value is on record?
A: soluble

Q: For “MTGQRDGASLHDALTDKQAAVLRAAFHAGYFEWPRESTAEDLAADMGVTAPTLHNHLRRAQQKLLEHHHHHH”, which “soluble on expression in E. coli” value is on record?
A: not soluble

Q: For “MLSGPHPSPTFRPNPCPWPCLHSLWMEISPTQLCFLSPGPSPQSPSCCFQGMNSGSELGKLWRKLFKGIPRLSVSHFDFYCGTCVLLGRPQIPQGSSLGNDIDQYPVVFRNASDQGSWMQLEMLLRKLSDLVWTSDALSDKILEDGLVP”, which “soluble on expression in E. coli” value is on record?
A: soluble

Q: Which “soluble on expression in E. coli” value does the source give for “MTVSSHRLELLSPARDAAIAREAILHGADAVYIGGPGFGARHNASNSLKDIAELVPFAHRYGAKIFVTLNTILHDDELEPAQRLITDLYQTGVDALIVQDMGILELDIPPIELHASTQCDIRTVEKAKFLSDVGFTQIVLARELNLDQIRAIHQATDATIEFFIHGALCVAYSGQCYISHAQTGRSANRGDCSQACRLPYTLKDDQGRVVSYEKHLLSMKDNDQTANLGALIDAGVRSFKIEGRYKDMSYVKNITAHYRQMLDAIIEERGDLARASSGRTEHFFVPSTEKTFHRGSTDYFVNARKGDIGAFDSPKFIGLPVGEVVKVAKDHLDVAVTEPLANGDGLNVLIKREVVGFRANTVEKTGENQYRVWPNEMPADLHKIRPHHPLNRNLDHNWQQALTKTSSERRVAVDIELGGWQEQLILTLTSEEGVSITHTLDGQFDEANNAEKAMNNLKDGLAKLGQTLYYARDVQINLPGALFVPNSLLNQFRREAADMLDAARLASYQRGSRKPVADPAPVYPQTHLSFLANVYNQKAREFYHRYGVQLIDAAYEAHEEKGEVPVMITKHCLRFAFNLCPKQAKGNIKSWKATPMQLVNGDEVLTLKFDCRPCEMHVIGKIKNHILKMPLPGSVVASVSPDELLKTLPKRKG” here?
A: soluble

Q: Which “soluble on expression in E. coli” value does the source give for “MLSTEDFDFDLPEELIAQTPLKDRASSRLLVVNKETGDMEDKHFHDILDELQPGDALVMNNTRVLPARLYGEKPETGGHLEVLLLTNTEGDTWETLIKPAKRAKVGTEIQFGDGRLKAVVKEELEHGGRIIEFKYDGIFLEILESLGEMPLPPYIKERLDDPDRYQTVYAEENGSAAAPTAGLHFTKELLEEIKAKGVHLVYLTLHVGLGTFRPVSVDNIEEHHMHSEFYRLTEEAAKQLNEVRQAGGRIVAVGTTSIRTLETIGTKFNGEIQADSGWTDIFITPGYQFKVVEAFSTNFHLPKSTLVMLVSAFAGKDLTLAAYQHAIEEKYRFFSFGDAMFIK” here?
A: not soluble

From the DeepSol protein solubility set
